{
  "source": "patent US10781452B2",
  "about": "“FLT3 receptor antagonists for the treatment or the prevention of pain disorders” (INSTITUT NATIONAL DE LA SANTE ET DE LA RECHERCHE MEDICALE …, priority 2010, dated 2020)",
  "target": "T1, ECD of human recombinant FLT3 (Fc-ECDhFLT3) (Homo sapiens, UniProt P36888)",
  "T1 construct": "ECD of human or mouse recombinant FLT3 produced in NSO cell line; host or cells: NSO cell line",
  "T1 sequence (P36888 27-543 limits assumed)": "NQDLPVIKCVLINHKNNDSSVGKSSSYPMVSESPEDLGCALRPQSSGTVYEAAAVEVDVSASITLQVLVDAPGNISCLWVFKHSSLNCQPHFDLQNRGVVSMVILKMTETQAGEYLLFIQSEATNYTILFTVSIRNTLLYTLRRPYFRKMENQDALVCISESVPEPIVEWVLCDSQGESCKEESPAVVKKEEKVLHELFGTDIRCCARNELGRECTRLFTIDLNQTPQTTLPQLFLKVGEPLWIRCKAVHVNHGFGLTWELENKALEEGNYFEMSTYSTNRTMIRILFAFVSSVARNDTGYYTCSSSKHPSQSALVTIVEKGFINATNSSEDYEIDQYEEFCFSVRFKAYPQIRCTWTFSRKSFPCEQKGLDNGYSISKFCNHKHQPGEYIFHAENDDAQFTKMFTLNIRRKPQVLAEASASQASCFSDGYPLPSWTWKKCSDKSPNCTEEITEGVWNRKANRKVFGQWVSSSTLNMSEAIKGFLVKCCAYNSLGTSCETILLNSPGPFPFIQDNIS",
  "assay": "ELISA binding to ECD of human recombinant FLT3",
  "conditions": "antibody at 10 μg/mL",
  "method": "The A3 antibody directed against FLT3 was produced by a phage display strategy and the antibody selection was performed by using ECD of human or mouse recombinant FLT3 produced in NSO cell line. To identify antibodies cross-reacting with both human and mouse FLT3, phages were selected by three rounds of panning, according to methods well known in the art (Philibert, P. et al. A focused antibody library for selecting scFvs expressed at high levels in the cytoplasm. BMC Biotechnol. 7, 81; 2007), first against the ECD of human FLT3, then against the ECD of mouse FLT3 and then against the ECD of human FLT3. A batch of one selected antibody named A3 was tested for its ability to bind to the ECD of human or mouse recombinant FLT3 using an ELISA technique.",
  "data": [
    {"molecule": "A3 antibody: human monoclonal antibody against FLT3; VH SEQ ID NO:1, VL SEQ ID NO:2 (antibody, V domains shown, Synthetic VH domain of A3; Synthetic VL region of A3) VH: EVQLVESGGSLVKPGGSLRLSCAASGFTFSNSYMNWVRQAPGKGLEWISDISGSSRDIDYADFVKGRFTISRDNATNSLYLQMNSLRAEDTAVYYCVRSGNSGMDVWGRGTLVTVSS VL: QSVLTQPASVSGSPGQSITISCAGTSSDVGGGYYVSWYQQHPGKAPKLMIYYDSYRPSGVSNRFSGSKSGNTASLTISGLQAEDEADYYCSSYTNNSTRVFGGGTKLEIK", "values": [
      {"measurement": "ELISA immunoreactivity against Fc-ECDhFLT3", "value": "generates immunoreactivity"}
    ]}
  ]
}
